Substrate in series [1]: OC[C@@H](O)[C@H](O)[C@@H](O)CO
Kind of series: purified protein. As to conditions: 50 mM KPi pH 7.5, 25 °C, O2 as co-substrate.

Substrate in series [2]: OCC(O)CO
Kind of series: purified protein. The following applies: 50 mM KPi pH 7.5, 25 °C, O2 as co-substrate.

B1: AldOCh (Thermostaphylospora chromogena) (protein)
chain: MSPTLTNWAGNIVFRAGEVHRPETLEELRTLVTRADKVRVLGSGHSFNDIADSPGVLVSPSRLPRELELDTAAGAVRVSAGIRYAELSAWLHERGFALHNLASLPHISVAGSCATATHGSGDGNGNLATAVRALTLVTAEGDLVDLDRERDGDRFRGAVVGLGALGVVVSMTLDVEPTFEVRQRVYEDLPLEAACDHFSDIMGCAYSVSMFSDWTSSRINQVWVKERVDEDGSRPPGPASFGAKPADGPRHPIARMPAGNCTEQLGVPGPWFARLPHFRPEFTPSGGQERQAEYLVPRRHAVAALRELAAIGDRIAPVLQISEIRTIAADDLWLSPCQGRDTVGFHFTLIPDTAAVLPVLELIEERLAPFEARPHWGKLFTTPPAVLRSRYDRLPDFQALARDLDPGGKFANEFISRNLLDA
A word on the Km: it is the concentration of substrate that gives half-maximal velocity. A word on the kcat: it is the number of substrate molecules converted per active site and unit of time at saturation. The term kcat/Km denotes the second-order rate constant that governs catalysis at low substrate concentration. In the case of B1, in “purified protein [1]”, the Km was determined as 40 µM, the kcat was determined as 3.5 s⁻¹ and the kcat/Km was 120000 M⁻¹ s⁻¹.

B2: AldOTf (Thermopolyspora flexuosa) (protein)
chain: MRSTNWAGNVVFRASELHRPASIDELRRVVARSPKVRVLGSGHSFNEITDTDGTLVSLDALPPEVEIDGATGTARISAGLRYGELSRRLHAAGHALANLASLPHICVAGACATGTHGSGDGNGGLATSVTAVELVTGEGDLVTLSRDADPDRFPGAVVSLGALGVVVAMTLRLVPAFEVRQRVYENLPAEALAGHFDEIMASGYSVSLFTDWRGDRISQVWVKERVDASSGAPGDEREPVVAALGATPADGPRHPVPGMPAVNCTEQLGVPGPWFERLPHFRPEFTPSSGDELQAEYLLPRRHAVAAFQALAGIADRIAPVLHISEIRTVAADDLWLSPFHGRDTVAFHFTWKRDEAAVLDVLGLMEDVLAPFEPRPHWGKLFTIPPKVLHSRYDRMADFRALARELDPAGKFANAFVARHVLEIE
For B2, in “purified protein [2]”, the Km turned out to be 50000 µM, the kcat stood at 1.6 s⁻¹ and the kcat/Km was determined as 32 M⁻¹ s⁻¹. Moreover, in the series “purified protein [1]”, the Km came to 30 µM, the kcat came out at 3.1 s⁻¹ and the kcat/Km is 100000 M⁻¹ s⁻¹.

B3: AldOAb (Actinomycetota bacterium) (protein)
chain: MTMRSTNWAGNVVYRASELHRPASLDELRRVVARSPKVRVLGSGHSFNEITDTEGALVSLEALPPEVEIDRATGTARVAAGLRYGELSARLHAAGYALPNLASLPHICVAGACATGTHGSGDGIGGLAGSVTAVELVTADGDLVTLSRDADPDRFPGAVVSLGALGAVVTMTLRLEPAFQVRQRVYENLPAEALDDHFDEIMASGYSVSLFTDWRGDRIRQVWVKERVGDPAAGGEEREPVVAALGATPADGPRHPVPGMPAANCTEQLGVPGPWHERLPHFRLGFTPSSGDELQAEYLLPRRHAVAAFHALAGIADRIAPVLHISEIRTVAADDLWLSPFHGRNTVAFHFTWKPDEAAVREVLSLMEEVLAPFEPRPHWGKLFAIPPKVLRSRYDRIGDFRALARELDPSGKFANAFVAHHVLDDE
B3: in the series “purified protein [1]”, the Km was 30 µM, the kcat amounted to 4.2 s⁻¹ and the kcat/Km was 140000 M⁻¹ s⁻¹.

Source of the values: PMC10771423, “Discovery and biochemical characterization of thermostable glycerol oxidases” (Applied Microbiology and Biotechnology, 2024).
